Reference: patent US20250019439A1 (Adimab, published 2025)

Experiments:
ADI-70326 = biological target: T1, ADI-70326; assay: SPR Carterra avidity, yeast anti-ID
T1 construct: anti-CD3 antibody made in CHO cells, captured by anti-human Fc
Procedure: (§1) Kinetic analysis was conducted at 25° C. in an HBSTE running buffer system (Carterra Cat #3630) using a Carterra LSA (Carterra USA, Salt Lake City, UT). The sample compartment was maintained at 20° C. for the duration of each experiment.
(§2) For antibody capture experiments, a goat anti-human Fc antibody (Jackson ImmunoResearch) was covalently coupled to an HC30M sensor chip surface via standard amine coupling (1:1 EDC:NHS) and then blocked with ethanolamine (1.0 M, pH 8.5). Covalent coupling steps were performed in 25 mM MES buffer (Carterra, Cat #3625) plus 0.05% Tween20. The anti-CD3 antibodies (100 nM in running buffer) were flowed over discrete regions of interest on the chip surface for 5 minutes. […] Dissociation of the anti-idiotype antibodies was monitored for 300s. Several blank buffer samples were injected over the entire chip surface at the start of each non-regenerative kinetic cycle. The preceding blank buffer injection was used for blank surface subtraction. At the end of each non-regenerative kinetic cycle, all surfaces were regenerated via two 30s injections of 10 mM glycine, pH 1.7.
(§3) For data processing and fitting, sensorgrams were double reference subtracted with a baseline drift correction of 4 RU. Sensorgrams were y-aligned and baseline corrected, filtered and cropped to include only the association and dissociation steps. Data was fitted to a 1:1 binding model using Carterra Kinetics Data Analysis software version 1.7.1.3055.

ADI-70327 = biological target: T2, ADI-70327; assay: SPR Carterra avidity, yeast anti-ID
T2 construct: anti-CD3 antibody made in CHO cells, captured by anti-human Fc
T2 sequence (VH, as listed by the source limits assumed, chain 1 of 2): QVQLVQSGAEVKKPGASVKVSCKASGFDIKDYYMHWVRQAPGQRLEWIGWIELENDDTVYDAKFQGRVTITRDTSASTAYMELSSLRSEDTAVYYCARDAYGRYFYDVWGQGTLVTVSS
T2 sequence (VL, as listed by the source limits assumed, chain 2 of 2): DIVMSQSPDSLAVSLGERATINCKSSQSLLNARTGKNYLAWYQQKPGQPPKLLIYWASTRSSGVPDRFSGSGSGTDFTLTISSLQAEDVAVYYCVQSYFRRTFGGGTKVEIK
Procedure: as §1, §2, §3

ADI-70330 = biological target: T3, ADI-70330; assay: SPR Carterra avidity, yeast anti-ID
T3 construct: anti-CD3 antibody made in CHO cells, captured by anti-human Fc
T3 sequence (VH, as listed by the source limits assumed, chain 1 of 2): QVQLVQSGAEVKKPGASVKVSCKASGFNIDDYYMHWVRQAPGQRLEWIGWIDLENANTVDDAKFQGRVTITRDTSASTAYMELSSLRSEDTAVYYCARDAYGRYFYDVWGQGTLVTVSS
Procedure: as §1, §2, §3

ADI-67450 = biological target: T4, ADI-67450; assay: SPR Carterra avidity, yeast anti-ID
T4 construct: anti-CD3 antibody made in CHO cells, captured by anti-human Fc
Procedure: as §1, §2, §3

ADI-67445 = biological target: T5, ADI-67445; assay: SPR Carterra avidity, yeast anti-ID
T5 construct: anti-CD3 antibody made in CHO cells, captured by anti-human Fc
T5 sequence (VH, as listed by the source limits assumed, chain 1 of 2): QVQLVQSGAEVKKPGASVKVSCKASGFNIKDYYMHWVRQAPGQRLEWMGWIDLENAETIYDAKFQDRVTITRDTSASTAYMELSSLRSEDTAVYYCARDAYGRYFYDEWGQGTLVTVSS
T5 sequence (VL, as listed by the source limits assumed, chain 2 of 2): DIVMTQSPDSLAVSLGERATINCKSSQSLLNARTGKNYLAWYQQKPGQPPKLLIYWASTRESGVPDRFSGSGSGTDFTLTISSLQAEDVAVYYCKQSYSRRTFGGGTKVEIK
Procedure: as §1, §2, §3

ADI-67447 = biological target: T6, ADI-67447; assay: SPR Carterra avidity, yeast anti-ID
T6 construct: anti-CD3 antibody made in CHO cells, captured by anti-human Fc
Procedure: as §1, §2, §3

ADI-26909 = biological target: T7, ADI-26909; assay: SPR Carterra avidity, yeast anti-ID
T7 construct: anti-CD3 antibody made in CHO cells, captured by anti-human Fc
Procedure: as §1, §2, §3

ADI-26913 IgG = biological target: T8, ADI-26913 IgG; assay: SPR Carterra avidity, yeast anti-ID
T8 construct: anti-CD3 IgG
T8 sequence (VH, as listed by the source limits assumed, chain 1 of 2): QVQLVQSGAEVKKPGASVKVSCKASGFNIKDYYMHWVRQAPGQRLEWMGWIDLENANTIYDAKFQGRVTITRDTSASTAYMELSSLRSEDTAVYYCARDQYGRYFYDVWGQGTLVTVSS
Procedure: as §1, §2, §3

ADI-26919 = biological target: T9, ADI-26919; assay: SPR Carterra avidity, yeast anti-ID
T9 construct: anti-CD3 antibody made in CHO cells, captured by anti-human Fc
Procedure: as §1, §2, §3

ADI-26921 IgG = biological target: T10, ADI-26921 IgG; assay: SPR Carterra avidity, yeast anti-ID
T10 construct: anti-CD3 IgG
Procedure: as §1, §2, §3

ADI-26916 IgG = biological target: T11, ADI-26916 IgG; assay: SPR Carterra avidity, yeast anti-ID
T11 construct: anti-CD3 IgG
Procedure: as §1, §2, §3

ADI-26912 = biological target: T12, ADI-26912; assay: SPR Carterra avidity, yeast anti-ID
T12 construct: anti-CD3 antibody made in CHO cells, captured by anti-human Fc
T12 sequence (VH, as listed by the source, chain 1 of 2): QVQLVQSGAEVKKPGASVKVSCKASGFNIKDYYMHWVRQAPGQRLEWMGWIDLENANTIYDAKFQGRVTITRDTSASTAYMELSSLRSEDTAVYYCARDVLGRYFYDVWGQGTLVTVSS
Procedure: as §1, §2, §3

ADI-26924 = biological target: T13, ADI-26924; assay: SPR Carterra avidity, yeast anti-ID
T13 construct: anti-CD3 antibody made in CHO cells, captured by anti-human Fc
T13 sequence (VH, as listed by the source, chain 1 of 2): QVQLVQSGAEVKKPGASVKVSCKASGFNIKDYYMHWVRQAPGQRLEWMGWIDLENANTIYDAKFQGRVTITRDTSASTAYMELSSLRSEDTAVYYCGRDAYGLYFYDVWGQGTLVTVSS
T13 sequence (VL, as listed by the source, chain 2 of 2): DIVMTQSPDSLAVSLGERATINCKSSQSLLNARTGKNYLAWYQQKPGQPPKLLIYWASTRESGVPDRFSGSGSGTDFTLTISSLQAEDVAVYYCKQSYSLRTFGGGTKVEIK
Procedure: as §1, §2, §3

ADI-26915 = biological target: T14, ADI-26915; assay: SPR Carterra avidity, yeast anti-ID
T14 construct: anti-CD3 antibody made in CHO cells, captured by anti-human Fc
T14 sequence (VH, as listed by the source, chain 1 of 2): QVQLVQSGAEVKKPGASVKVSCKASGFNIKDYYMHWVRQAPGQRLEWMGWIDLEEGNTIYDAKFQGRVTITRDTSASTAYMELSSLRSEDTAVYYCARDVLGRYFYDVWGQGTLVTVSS
Procedure: as §1, §2, §3

ADI-26943 = biological target: T15, ADI-26943; assay: SPR Carterra avidity, yeast anti-ID
T15 construct: anti-CD3 antibody made in CHO cells, captured by anti-human Fc
T15 sequence (VH, as listed by the source, chain 1 of 2): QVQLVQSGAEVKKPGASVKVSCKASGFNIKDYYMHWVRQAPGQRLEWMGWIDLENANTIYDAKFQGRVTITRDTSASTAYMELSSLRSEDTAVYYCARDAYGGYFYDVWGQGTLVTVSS
T15 sequence (VL, as listed by the source, chain 2 of 2): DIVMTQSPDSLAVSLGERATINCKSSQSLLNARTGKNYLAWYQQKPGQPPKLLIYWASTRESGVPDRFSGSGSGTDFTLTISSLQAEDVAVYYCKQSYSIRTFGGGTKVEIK
Procedure: as §1, §2, §3

ADI-48576 = biological target: T16, ADI-48576; assay: SPR Carterra avidity, yeast anti-ID
T16 construct: pH-dependent anti-CD3 antibody made in CHO cells
T16 sequence (VH, as listed by the source, chain 1 of 2): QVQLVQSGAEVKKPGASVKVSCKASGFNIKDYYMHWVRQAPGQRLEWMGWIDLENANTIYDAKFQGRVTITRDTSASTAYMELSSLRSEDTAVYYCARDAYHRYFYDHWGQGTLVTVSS
T16 sequence (VL, as listed by the source, chain 2 of 2): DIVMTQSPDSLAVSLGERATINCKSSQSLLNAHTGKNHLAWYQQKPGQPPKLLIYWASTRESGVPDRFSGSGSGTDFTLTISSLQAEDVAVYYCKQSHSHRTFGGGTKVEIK
Procedure: as §1, §2, §3

ADI-48587 = biological target: T17, ADI-48587; assay: SPR Carterra avidity, yeast anti-ID
T17 construct: pH-dependent anti-CD3 antibody made in CHO cells
Procedure: as §1, §2, §3

ADI-48592 = biological target: T18, ADI-48592; assay: SPR Carterra avidity, yeast anti-ID
T18 construct: pH-dependent anti-CD3 antibody made in CHO cells
Procedure: as §1, §2, §3

ADI-48650 = biological target: T19, ADI-48650; assay: SPR Carterra avidity, yeast anti-ID
T19 construct: pH-dependent anti-CD3 antibody made in CHO cells
Procedure: as §1, §2, §3

ADI-74965 = biological target: T20, ADI-74965; assay: SPR Carterra avidity, yeast anti-ID
T20 construct: pH-dependent anti-CD3 antibody made in CHO cells
Procedure: as §1, §2, §3

ADI-74966 = biological target: T21, ADI-74966; assay: SPR Carterra avidity, yeast anti-ID
T21 construct: pH-dependent anti-CD3 antibody made in CHO cells
Procedure: as §1, §2, §3

ADI-74968 = biological target: T22, ADI-74968; assay: SPR Carterra avidity, yeast anti-ID
T22 construct: pH-dependent anti-CD3 antibody made in CHO cells
T22 sequence (VH, as listed by the source, chain 1 of 2): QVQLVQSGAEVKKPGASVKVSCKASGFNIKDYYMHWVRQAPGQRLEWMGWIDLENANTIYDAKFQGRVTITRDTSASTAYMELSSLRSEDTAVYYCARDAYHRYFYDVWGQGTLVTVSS
T22 sequence (VL, as listed by the source, chain 2 of 2): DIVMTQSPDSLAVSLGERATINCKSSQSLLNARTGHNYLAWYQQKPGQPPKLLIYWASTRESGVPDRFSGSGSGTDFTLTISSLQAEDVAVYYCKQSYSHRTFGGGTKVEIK
Procedure: as §1, §2, §3

ADI-76358 = biological target: T23, ADI-76358; assay: SPR Carterra avidity, yeast anti-ID
T23 construct: anti-CD3 antibody made in CHO cells, captured by anti-human Fc
Procedure: as §1, §2, §3

ADI-76359 = biological target: T24, ADI-76359; assay: SPR Carterra avidity, yeast anti-ID
T24 construct: anti-CD3 antibody made in CHO cells, captured by anti-human Fc
T24 sequence (VH, as listed by the source, chain 1 of 2): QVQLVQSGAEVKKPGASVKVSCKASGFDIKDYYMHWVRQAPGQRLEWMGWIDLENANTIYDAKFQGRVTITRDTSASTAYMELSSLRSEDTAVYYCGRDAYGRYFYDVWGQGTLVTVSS
Procedure: as §1, §2, §3

ADI-76360 = biological target: T25, ADI-76360; assay: SPR Carterra avidity, yeast anti-ID
T25 construct: anti-CD3 antibody made in CHO cells, captured by anti-human Fc
T25 sequence (VH, as listed by the source, chain 1 of 2): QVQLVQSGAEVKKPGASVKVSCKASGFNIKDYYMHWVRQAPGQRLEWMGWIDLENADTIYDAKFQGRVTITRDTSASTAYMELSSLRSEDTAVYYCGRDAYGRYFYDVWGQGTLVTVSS
Procedure: as §1, §2, §3

ADI-76362 = biological target: T26, ADI-76362; assay: SPR Carterra avidity, yeast anti-ID
T26 construct: anti-CD3 antibody made in CHO cells, captured by anti-human Fc
T26 sequence (VH, as listed by the source, chain 1 of 2): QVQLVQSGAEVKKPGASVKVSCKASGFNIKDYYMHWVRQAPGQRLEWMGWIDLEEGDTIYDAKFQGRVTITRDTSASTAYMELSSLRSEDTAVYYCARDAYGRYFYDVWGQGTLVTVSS
Procedure: as §1, §2, §3

CTL-62223 = biological target: T27, CTL-62223; assay: SPR Carterra avidity, yeast anti-ID
T27 construct: also called mosunetuzumab
Procedure: as §1, §2, §3

ADI-22523 Fab = biological target: T28, ADI-22523 Fab; assay: BLI; tip anti-ID IgG, solution ADI-22523 Fab
T28 construct: anti-CD3 Fab by papain digestion of the IgG
T28 sequence (VH, as listed by the source limits assumed, chain 1 of 2): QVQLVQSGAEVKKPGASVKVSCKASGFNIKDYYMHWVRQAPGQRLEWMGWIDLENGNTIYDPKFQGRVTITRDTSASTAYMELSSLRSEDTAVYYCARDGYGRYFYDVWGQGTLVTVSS
T28 sequence (VL, as listed by the source limits assumed, chain 2 of 2): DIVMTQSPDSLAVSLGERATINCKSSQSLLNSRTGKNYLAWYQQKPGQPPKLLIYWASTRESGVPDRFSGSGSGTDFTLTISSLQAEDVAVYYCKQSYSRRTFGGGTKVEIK
Procedure: (§4) ForteBio affinity measurements were performed generally as previously described (Estep et al., MAbs. 2013 5(2):270-8). Briefly, ForteBio affinity measurements were performed by loading antibody IgG or Fabs on-line onto AHC sensors. Sensors were equilibrated off-line in assay buffer for 30 minutes and then monitored on-line for 60 seconds for baseline establishment. For avid binding measurement, sensors with loaded antibodies were exposed to IgG or Fab solutions for 3 minutes, afterwards they were transferred to assay buffer for 3 minutes for off-rate measurement. Kinetics data were fit using a 1:1 binding model in the data analysis software provided by ForteBio to obtain equilibrium dissociation constant (KD=koff/kₒₙ) values. In each column, tip-immobilized antibodies are listed first and solution antibodies second.

ADI-22523 IgG = biological target: T29, ADI-22523 IgG; assay: BLI; tip anti-ID IgG, solution ADI-22523 IgG
T29 construct: anti-CD3 IgG
Procedure: as §4

ADI-50024 = biological target: T30, ADI-50024; assay: SPR Carterra avidity, yeast anti-ID, *koff limit
T30 construct: anti-CD3 antibody made in CHO cells, captured by anti-human Fc
Procedure: as §1, §2, §3

ADI-26906 IgG = biological target: T31, ADI-26906 IgG; assay: SPR Carterra avidity, yeast anti-ID, *koff limit
T31 construct: anti-CD3 IgG
Procedure: as §1, §2, §3

ADI-26920 IgG = biological target: T32, ADI-26920 IgG; assay: SPR Carterra avidity, yeast anti-ID, *koff limit
T32 construct: anti-CD3 IgG
T32 sequence (VH, as listed by the source limits assumed, chain 1 of 2): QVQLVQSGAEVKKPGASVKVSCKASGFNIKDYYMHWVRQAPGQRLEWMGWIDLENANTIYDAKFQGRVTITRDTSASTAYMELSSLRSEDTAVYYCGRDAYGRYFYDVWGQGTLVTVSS
Procedure: as §1, §2, §3

ADI-74967 = biological target: T33, ADI-74967; assay: SPR Carterra avidity, yeast anti-ID, *koff limit
T33 construct: pH-dependent anti-CD3 antibody made in CHO cells
Procedure: as §1, §2, §3

ADI-76357 = biological target: T34, ADI-76357; assay: SPR Carterra avidity, yeast anti-ID, *koff limit
T34 construct: anti-CD3 antibody made in CHO cells, captured by anti-human Fc
Procedure: as §1, §2, §3

ADI-76361 = biological target: T35, ADI-76361; assay: SPR Carterra avidity, yeast anti-ID, *koff limit
T35 construct: anti-CD3 antibody made in CHO cells, captured by anti-human Fc
T35 sequence (VH, as listed by the source, chain 1 of 2): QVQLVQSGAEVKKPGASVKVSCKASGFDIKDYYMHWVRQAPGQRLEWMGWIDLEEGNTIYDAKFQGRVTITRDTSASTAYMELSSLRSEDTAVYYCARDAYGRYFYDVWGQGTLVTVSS
Procedure: as §1, §2, §3

T1 sequence (VH, as listed by the source limits assumed, chain 1 of 2): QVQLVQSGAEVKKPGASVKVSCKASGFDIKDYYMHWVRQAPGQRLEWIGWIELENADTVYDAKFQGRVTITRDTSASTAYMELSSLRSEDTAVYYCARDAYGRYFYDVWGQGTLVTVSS

Kd (ADI-70326): 2.1 nM | Kd (ADI-70327): 2 nM | Kd (ADI-70330): 0.42 nM | Kd (ADI-67450): 0.56 nM | Kd (ADI-67445): 0.34 nM | Kd (ADI-67447): 0.18 nM | Kd (ADI-26909): 0.3 nM | Kd (ADI-26913 IgG): 0.18 nM | Kd (ADI-26919): 0.16 nM | Kd (ADI-26921 IgG): 0.18 nM | Kd (ADI-26916 IgG): 0.35 nM | binding result (ADI-26912): binds | Kd (ADI-26924): 0.17 nM | binding result (ADI-26915): binds | Kd (ADI-26943): 0.25 nM | Kd (ADI-48576): 29 nM | Kd (ADI-48587): 1.9 nM | binding result (ADI-48592): binds | Kd (ADI-48650): 3.3 nM | Kd (ADI-74965): 9.4 nM | Kd (ADI-74966): 0.64 nM | Kd (ADI-74968): 1.2 nM | Kd (ADI-76358): 0.73 nM | Kd (ADI-76359): 0.12 nM | Kd (ADI-76360): 0.35 nM | Kd (ADI-76362): 0.14 nM | Kd (CTL-62223): 1.2 nM | Kd (ADI-22523 Fab): 30.4 nM | Kd (ADI-22523 IgG): 0.75 nM | Kd (ADI-50024): 0.42 nM | Kd (ADI-26906 IgG): 0.25 nM | Kd (ADI-26920 IgG): 0.14 nM | Kd (ADI-74967): 0.15 nM | Kd (ADI-76357): 0.12 nM | Kd (ADI-76361): 0.1 nM
B1: ADI-34136 (antibody, V domains shown)
VH: QVQLVQSGAEVKKPGSSVKVSCKASGGTFSSYAISWVRQAPGQGLEWMGGIIPIFGTANYAQKFQGRVTITADESTSTAYMELSSLRSEDTAVYYCARGAPNYYGSGGYDDGWFDPWGQGTLVTVSS
VL: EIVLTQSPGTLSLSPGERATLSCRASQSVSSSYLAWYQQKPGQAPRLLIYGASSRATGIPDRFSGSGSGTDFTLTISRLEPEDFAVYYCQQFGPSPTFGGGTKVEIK
notes: anti-ID IgG
